The supplement of paper PMC10567573

B1: KCNA4 (parent)
chain: YQLGEEALLKFREDEGFVREEEDR
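Further: lentivirally expressed fusions sorted by FACS into six bins by GFP to DsRed ratio, PSI derived from sequencing read proportions per bin multiplied by bin number.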

Variants of: B1
Assay: protein stability index of a GFP-peptide fusion (GPS, HEK-293T) (PSI 1-6); higher = more stable
Conditions: c terminus: a fixed tail appended
R19P showed a protein stability index of 4.62.
Work on R19I yielded a protein stability index of 4.36.
In the case of R19D, the protein stability index is reported as 4.76.
R19G showed a protein stability index of 4.85.
R19W showed a protein stability index of 4.4.
Variant R19A has a protein stability index of 4.91.
Work on R19S yielded a protein stability index of 4.22.
For R19C, the protein stability index was 4.91.
Work on R19K yielded a protein stability index of 4.05.
R19N showed a protein stability index of 4.47.
Work on R19M yielded a protein stability index of 4.62.
With R19L the protein stability index was 4.46.
In the case of R19T, the protein stability index is reported as 4.65.
With R19V the protein stability index was 4.59.
In the case of R19F, the protein stability index is reported as 4.87.
For R19Q, the protein stability index was 4.42.
R19H gave a protein stability index of 4.77.
Work on R19E yielded a protein stability index of 4.91.
Work on R19Y yielded a protein stability index of 4.51.
For E22L, the protein stability index was 3.99.
Variant E22D has a protein stability index of 4.65.
Variant E22Y has a protein stability index of 3.58.
Variant E22R has a protein stability index of 3.95.
With E22N the protein stability index was 3.85.
In the case of E22C, the protein stability index is reported as 4.32.
With E22K the protein stability index was 3.99.
In the case of E22T, the protein stability index is reported as 4.11.
Variant E22M has a protein stability index of 4.92.
In the case of E22W, the protein stability index is reported as 4.01.
Variant E22I has a protein stability index of 4.03.
E22V gave a protein stability index of 4.13.
E22A showed a protein stability index of 4.75.
In the case of E22G, the protein stability index is reported as 4.23.
Work on E22P yielded a protein stability index of 4.16.
Variant E22S has a protein stability index of 4.02.
E22F showed a protein stability index of 3.82.
E22H gave a protein stability index of 4.37.
Variant E22Q has a protein stability index of 4.25.
E21G showed a protein stability index of 4.43.
Work on E21S yielded a protein stability index of 4.71.
For E21H, the protein stability index was 4.18.
E21I showed a protein stability index of 4.07.
Work on E21R yielded a protein stability index of 3.05.
E21L showed a protein stability index of 3.07.
For E21P, the protein stability index was 4.65.
In the case of E21W, the protein stability index is reported as 3.5.
With E21M the protein stability index was 4.21.
E21Q gave a protein stability index of 4.21.
E21Y gave a protein stability index of 4.
E21C showed a protein stability index of 3.71.
Work on E21F yielded a protein stability index of 4.06.
For E21V, the protein stability index was 4.29.
Work on E21T yielded a protein stability index of 4.38.
With E21A the protein stability index was 4.45.
E21D gave a protein stability index of 4.4.
E21N gave a protein stability index of 4.
For E21K, the protein stability index was 4.08.
Variant R24C has a protein stability index of 4.21.
For R24A, the protein stability index was 4.69.
R24D gave a protein stability index of 4.71.
Variant R24F has a protein stability index of 4.27.
R24E showed a protein stability index of 5.1.
E15V showed a protein stability index of 3.8.
E15P showed a protein stability index of 3.99.
For E15Y, the protein stability index was 4.3.
In the case of E15T, the protein stability index is reported as 3.73.
Work on E15S yielded a protein stability index of 4.09.
E15M gave a protein stability index of 3.96.
For E15Q, the protein stability index was 4.4.
With E15W the protein stability index was 3.84.
In the case of E15N, the protein stability index is reported as 4.42.
With E15R the protein stability index was 4.15.
D23F showed a protein stability index of 4.14.
Work on D23Q yielded a protein stability index of 4.04.
For D23H, the protein stability index was 3.94.
D23W showed a protein stability index of 3.51.
In the case of D23E, the protein stability index is reported as 4.75.
Variant D23M has a protein stability index of 3.76.
D23C gave a protein stability index of 4.48.
Variant D23R has a protein stability index of 4.39.
D23A showed a protein stability index of 4.28.
In the case of D23L, the protein stability index is reported as 3.97.
Variant D23S has a protein stability index of 4.62.
For D23T, the protein stability index was 4.11.
With D23K the protein stability index was 4.45.
With D23V the protein stability index was 3.7.
Work on D23N yielded a protein stability index of 4.05.
D23G gave a protein stability index of 3.88.
D23P gave a protein stability index of 3.82.
For D23I, the protein stability index was 3.88.
With D23Y the protein stability index was 4.46.
F17L showed a protein stability index of 4.61.
For F17G, the protein stability index was 4.01.
With F17V the protein stability index was 4.53.
For F17P, the protein stability index was 4.9.
Work on F17Q yielded a protein stability index of 4.5.
For F17E, the protein stability index was 4.79.
For F17C, the protein stability index was 4.88.
Work on F17Y yielded a protein stability index of 4.86.
Variant F17S has a protein stability index of 4.56.
With F17H the protein stability index was 4.71.
For F17D, the protein stability index was 4.81.
F17I gave a protein stability index of 4.3.
F17N gave a protein stability index of 4.68.
F17A gave a protein stability index of 4.78.
Variant F17R has a protein stability index of 4.13.
Variant F17W has a protein stability index of 4.59.
Work on F17M yielded a protein stability index of 3.69.
In the case of F17T, the protein stability index is reported as 4.5.
In the case of F17K, the protein stability index is reported as 4.51.
Work on G16H yielded a protein stability index of 4.8.
With G16N the protein stability index was 4.47.
G16A showed a protein stability index of 4.65.
G16C gave a protein stability index of 4.83.
Work on G16T yielded a protein stability index of 4.58.
Work on G16K yielded a protein stability index of 3.93.
G16Q showed a protein stability index of 4.73.
Variant G16M has a protein stability index of 4.48.
With G16Y the protein stability index was 4.04.
In the case of G16I, the protein stability index is reported as 4.61.
Variant G16V has a protein stability index of 4.5.
In the case of G16E, the protein stability index is reported as 4.84.
For G16D, the protein stability index was 5.21.
With G16R the protein stability index was 4.08.
Variant G16L has a protein stability index of 4.85.
Variant G16W has a protein stability index of 4.12.
G16S showed a protein stability index of 4.75.
G16P showed a protein stability index of 4.62.
Variant G16F has a protein stability index of 4.31.
For E20A, the protein stability index was 3.63.
In the case of E20I, the protein stability index is reported as 3.4.
In the case of E20R, the protein stability index is reported as 4.1.
For E20C, the protein stability index was 4.05.
In the case of E20V, the protein stability index is reported as 4.14.
E20Q gave a protein stability index of 4.44.
Variant E20M has a protein stability index of 4.06.
Variant E20F has a protein stability index of 3.64.
Variant E20D has a protein stability index of 4.38.
With E20K the protein stability index was 4.13.
With E20H the protein stability index was 4.49.
Work on E20G yielded a protein stability index of 3.93.
E20S showed a protein stability index of 4.45.
Work on E20T yielded a protein stability index of 4.56.
For E20Y, the protein stability index was 3.71.
E20W gave a protein stability index of 3.56.
For E20N, the protein stability index was 4.61.
For E20L, the protein stability index was 3.9.
E20P gave a protein stability index of 4.3.
Variant V18N has a protein stability index of 4.82.
In the case of V18I, the protein stability index is reported as 4.5.
Variant V18W has a protein stability index of 3.94.
V18K gave a protein stability index of 4.13.
With V18A the protein stability index was 4.16.
V18E gave a protein stability index of 4.67.
For V18Y, the protein stability index was 4.63.
In the case of V18L, the protein stability index is reported as 4.44.
Variant V18H has a protein stability index of 4.36.
For V18C, the protein stability index was 4.53.
V18M showed a protein stability index of 4.58.
V18R showed a protein stability index of 4.04.
For V18F, the protein stability index was 4.36.
In the case of V18D, the protein stability index is reported as 4.83.
V18G gave a protein stability index of 4.43.
Variant V18P has a protein stability index of 4.63.
With V18T the protein stability index was 4.54.
Work on V18S yielded a protein stability index of 4.32.
With V18Q the protein stability index was 4.78.
